Measured values from US20110275559A1, “Long-Acting Y2 and/or Y4 Receptor Agonists” (Novo Nordisk A/S, priority 2008, published 2011).
*1 amine or outer side, *2 acyl side, *3 side chain or, on linkers, in order; H or OH if unused. Where no end group is shown, it is not given here. Side-chain parts run from the residue outwards. The star is where a group is joined. C20 diacid = O=C(O)CCCCCCCCCCCCCCCCCCC(=O)*; C18 diacid = O=C(O)CCCCCCCCCCCCCCCCC(=O)*; γGlu = O=C(O)[C@H](CCC(=O)[*:2])N[*:1]; Trx = NC[C@H]1CC[C@H](C(=O)O)CC1; AEEA = NCCOCCOCC(=O)O

T1: Y2 receptor (UniProt P49146 1-381, limits assumed)
T1 sequence (looked up): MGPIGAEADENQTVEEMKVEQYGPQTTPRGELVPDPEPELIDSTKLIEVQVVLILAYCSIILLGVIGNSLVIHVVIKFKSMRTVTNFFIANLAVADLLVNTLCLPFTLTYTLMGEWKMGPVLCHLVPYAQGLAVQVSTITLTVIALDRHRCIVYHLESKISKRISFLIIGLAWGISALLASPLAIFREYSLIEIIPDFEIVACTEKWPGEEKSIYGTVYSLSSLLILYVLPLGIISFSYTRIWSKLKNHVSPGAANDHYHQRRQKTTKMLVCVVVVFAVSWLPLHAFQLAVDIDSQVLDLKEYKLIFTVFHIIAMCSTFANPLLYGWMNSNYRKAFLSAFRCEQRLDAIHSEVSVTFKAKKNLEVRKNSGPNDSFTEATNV

B1: N-alfa-[2-(2-{2-[2-(2-{2-[(S)-4-Carboxy-4-({trans-4-[(19-carboxynonadecanoylamino)methyl]cyclohexanecarbonyl}amino)butyrylamino]-ethoxy}ethoxy)acetylamino]ethox … (peptide)
peptide: APLEPVYPGDNATPEQLAQYAADLRRYINLLTRPRY
modifications: not fully specified (N-terminus); printed as N-alfa-[2-(2-{2-[2-(2-{2-[(S)-4-Carboxy-4-({trans-4-[(19-carboxynonadecanoylamino)methyl]cyclohexanecarbonyl}amino)butyrylamino]-ethoxy}ethoxy)acetylamino]ethoxy}ethoxy)acetyl][Leu17,Leu30]hPP1-36; ends and bridges not checked

Columns and labels:
Y2 receptor = biological target: T1, Y2 receptor; assay: cell-based or functional assay
Y4 receptor = Y4 receptor (UniProt P50391 1-375, limits assumed); assay: cell-based or functional assay
Y4 receptor, sequence (P50391 whole entry): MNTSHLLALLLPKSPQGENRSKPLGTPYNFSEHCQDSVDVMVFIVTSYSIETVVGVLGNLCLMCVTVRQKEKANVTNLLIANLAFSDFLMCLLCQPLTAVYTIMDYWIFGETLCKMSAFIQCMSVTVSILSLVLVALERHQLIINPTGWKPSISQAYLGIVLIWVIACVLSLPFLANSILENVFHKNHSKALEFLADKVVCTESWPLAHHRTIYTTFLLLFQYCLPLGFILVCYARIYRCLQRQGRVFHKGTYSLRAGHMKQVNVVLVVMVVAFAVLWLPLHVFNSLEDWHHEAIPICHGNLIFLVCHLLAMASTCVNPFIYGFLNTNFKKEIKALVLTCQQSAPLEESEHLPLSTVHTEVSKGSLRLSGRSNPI

| Binder | Y2 cAMP EC50 (Y2 receptor) [nM] | Y4 cAMP EC50 (Y4 receptor) [nM] |
| --- | --- | --- |
| APLEPVYPGDNAK([AEEA-AEEA-γGlu-Trx-C20 diacid])PEQLAQYAADLRRYINVLTRQRY (ends and bridges not checked) | 130 | 7 |
| APLEPVYPGDNAK([AEEA-AEEA-γGlu-Trx-C20 diacid])PEQLAQYAADLRRYIQLLTRPRY (ends and bridges not checked) | > 1000 | 130 |
| PLEPVYPGDNATPEQLAQYAADLRRYINLLTRPRY (ends and bridges not checked) [[Leu17,Leu30]hPP2-36] | > 1000 | 0.9 |
| PLEPVYPGDNATPEQLK([AEEA-AEEA-γGlu-C18 diacid])QYAADLRRYINLLTRPRY (ends and bridges not checked) | > 1000 | 0.4 |
| PLEPVYPGDNATPEQLAQYAADLRRYINLLTRPK([AEEA-AEEA-γGlu-C18 diacid])Y (ends and bridges not checked) | > 1000 | > 1000 |
| PLEPVYPGDK([AEEA-AEEA-γGlu-C18 diacid])ATPEQLAQYAADLRRYINLLTRPRY (ends and bridges not checked) | > 1000 | 1 |
| PLEPVYPGDNATPEQLAQYAADLRRYIK([AEEA-AEEA-γGlu-Trx-C20 diacid])LLTRPRY (ends and bridges not checked) | > 1000 | > 890 |
| PLEPVYPGDNATPEQLAQYAADLRRYINLLTK([AEEA-AEEA-γGlu-C18 diacid])PRY (ends and bridges not checked) | > 1000 | > 1000 |
| PLEPVYPGDNATPEQLAQYAADLRRYINLLTK([AEEA-AEEA-γGlu-Trx-C20 diacid])PRY (ends and bridges not checked) | > 1000 | > 1000 |
| APLEPVYPGDNAK([AEEA-AEEA-γGlu-Trx-C20 diacid])PEQLAQYAADLRRYVNLLTRQRY (ends and bridges not checked) | 63 | 65 |
| PLEPVYPGDNATPEQLAQYAADLRK([AEEA-AEEA-γGlu-C18 diacid])YINLLTRPRY (ends and bridges not checked) | > 1000 | 5 |
| B1 | > 1000 | 3.2 |
| PLEPVYPGDK([AEEA-AEEA-γGlu-Trx-C20 diacid])ATPEQLAQYAADLRRYINLLTRPRY (ends and bridges not checked) | > 1000 | 2 |
| PLEPVYPGDNATPEQLK([AEEA-AEEA-γGlu-Trx-C20 diacid])QYAADLRRYINLLTRPRY (ends and bridges not checked) | > 1000 | 0.8 |
| APLEPVYPGNDAK([AEEA-AEEA-γGlu-Trx-C20 diacid])PEQLAQYAADLRRYINLVTRPRY (ends and bridges not checked) | 92 | 18 |
| PLEPVYPGDNATPEQLAQYAADLRK([AEEA-AEEA-γGlu-Trx-C20 diacid])YINLLTRPRY (ends and bridges not checked) | > 1000 | 7 |
| APLEPVYPGDNAK([AEEA-AEEA-γGlu-Trx-C20 diacid])PEQLAQYAADLRRYINLLTRQRY (ends and bridges not checked) | 54 | 18 |
| APLEPVYPGDNAK([AEEA-AEEA-γGlu-Trx-C20 diacid])PEQLAQYAADLRRYLNVLTRQRY (ends and bridges not checked) | 73 | 7 |
| PLEPVYPGDNATPEQLAQYAADLK([AEEA-AEEA-γGlu-Trx-C20 diacid])RYINLLTRPRY (ends and bridges not checked) | > 1000 | > 1000 |
